Measured values published in IntAct's records for PubMed 16902405.
Values belong to the substance of their own block, whether it stands above or below them.

Key:
rab1a_human RAB1A [1] = biological target: rab1a_human RAB1A (UniProt P62820)
rab6a_human RAB6A [2] = biological target: rab6a_human RAB6A (UniProt P20340)
rab5a_human RAB5A [3] = biological target: rab5a_human RAB5A (UniProt P20339)
rab5a_human RAB5A [4] = biological target: rab5a_human RAB5A (UniProt P20339); remark: listed apart in the source
rab6a_human RAB6A [5] = biological target: rab6a_human RAB6A (UniProt P20340); remark: listed apart in the source
rab1a_human RAB1A [6] = biological target: rab1a_human RAB1A (UniProt P62820); remark: listed apart in the source
rab6a_human RAB6A [7] = biological target: rab6a_human RAB6A (UniProt P20340); remark: listed apart in the source
clh1_human CLTC [8] = biological target: clh1_human CLTC (UniProt Q00610)
Chain of clh1_human CLTC (Q00610 whole entry): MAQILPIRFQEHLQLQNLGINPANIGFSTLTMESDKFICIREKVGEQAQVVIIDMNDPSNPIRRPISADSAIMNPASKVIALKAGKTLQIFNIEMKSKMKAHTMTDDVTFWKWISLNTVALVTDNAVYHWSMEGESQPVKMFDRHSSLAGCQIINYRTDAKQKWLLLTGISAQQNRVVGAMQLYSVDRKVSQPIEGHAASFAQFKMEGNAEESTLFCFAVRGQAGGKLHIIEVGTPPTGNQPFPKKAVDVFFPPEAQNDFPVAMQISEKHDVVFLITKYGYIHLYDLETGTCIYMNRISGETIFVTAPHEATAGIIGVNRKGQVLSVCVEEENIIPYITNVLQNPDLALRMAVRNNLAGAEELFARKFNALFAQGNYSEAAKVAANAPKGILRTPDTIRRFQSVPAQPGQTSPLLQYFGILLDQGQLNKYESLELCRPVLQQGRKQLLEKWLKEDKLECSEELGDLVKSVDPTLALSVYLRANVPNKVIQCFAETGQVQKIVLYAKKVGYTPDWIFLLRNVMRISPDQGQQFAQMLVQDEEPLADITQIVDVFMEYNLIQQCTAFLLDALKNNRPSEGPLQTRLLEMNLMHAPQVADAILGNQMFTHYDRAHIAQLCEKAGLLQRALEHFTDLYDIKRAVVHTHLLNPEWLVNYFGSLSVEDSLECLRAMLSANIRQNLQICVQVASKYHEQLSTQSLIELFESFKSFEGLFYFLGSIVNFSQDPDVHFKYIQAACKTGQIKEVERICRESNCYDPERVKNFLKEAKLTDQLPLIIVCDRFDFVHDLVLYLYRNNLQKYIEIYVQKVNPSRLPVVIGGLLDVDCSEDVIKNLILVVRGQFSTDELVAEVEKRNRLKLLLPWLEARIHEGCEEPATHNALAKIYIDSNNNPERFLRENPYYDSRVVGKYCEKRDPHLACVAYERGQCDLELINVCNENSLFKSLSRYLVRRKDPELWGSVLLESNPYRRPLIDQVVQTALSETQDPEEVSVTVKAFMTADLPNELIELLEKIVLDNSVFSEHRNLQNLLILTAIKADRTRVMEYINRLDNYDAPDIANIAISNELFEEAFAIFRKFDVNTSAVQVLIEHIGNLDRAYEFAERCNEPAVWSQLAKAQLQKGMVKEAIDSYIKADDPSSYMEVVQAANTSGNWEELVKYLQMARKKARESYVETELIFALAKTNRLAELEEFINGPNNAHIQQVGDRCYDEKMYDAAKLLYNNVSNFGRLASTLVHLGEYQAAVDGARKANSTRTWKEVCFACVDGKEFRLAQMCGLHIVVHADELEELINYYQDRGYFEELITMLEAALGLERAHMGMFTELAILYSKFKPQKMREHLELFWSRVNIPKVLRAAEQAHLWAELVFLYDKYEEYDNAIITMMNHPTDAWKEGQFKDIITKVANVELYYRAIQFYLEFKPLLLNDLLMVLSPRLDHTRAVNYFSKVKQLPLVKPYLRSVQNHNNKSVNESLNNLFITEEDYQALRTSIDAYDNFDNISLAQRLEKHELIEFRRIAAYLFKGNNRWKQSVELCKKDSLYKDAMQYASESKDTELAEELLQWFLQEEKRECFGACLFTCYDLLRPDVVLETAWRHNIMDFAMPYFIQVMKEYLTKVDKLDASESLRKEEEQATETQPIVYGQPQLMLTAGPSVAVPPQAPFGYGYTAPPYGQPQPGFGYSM

rab5a_human RAB5A [9] = biological target: rab5a_human RAB5A (UniProt P20339); remark: listed apart in the source
rab1a_human RAB1A [10] = biological target: rab1a_human RAB1A (UniProt P62820); remark: listed apart in the source
rab6a_human RAB6A [11] = biological target: rab6a_human RAB6A (UniProt P20340); remark: listed apart in the source
rab5a_human RAB5A [12] = biological target: rab5a_human RAB5A (UniProt P20339); remark: listed apart in the source
rab1a_human RAB1A [13] = biological target: rab1a_human RAB1A (UniProt P62820); remark: listed apart in the source
rab6a_human RAB6A [14] = biological target: rab6a_human RAB6A (UniProt P20340); remark: listed apart in the source
clh1_human CLTC [15] = biological target: clh1_human CLTC (UniProt Q00610); remark: listed apart in the source
rab6a_human RAB6A [16] = biological target: rab6a_human RAB6A (UniProt P20340); remark: listed apart in the source
clh1_human CLTC [17] = biological target: clh1_human CLTC (UniProt Q00610); remark: listed apart in the source

Chain of rab5a_human RAB5A (P20339 whole entry): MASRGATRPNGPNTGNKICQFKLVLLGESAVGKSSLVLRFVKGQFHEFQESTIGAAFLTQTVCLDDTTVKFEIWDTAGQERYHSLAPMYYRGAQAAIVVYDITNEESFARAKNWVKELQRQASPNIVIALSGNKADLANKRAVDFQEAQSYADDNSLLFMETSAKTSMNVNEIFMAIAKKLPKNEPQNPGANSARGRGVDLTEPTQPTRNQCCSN
Chain of Inositol polyphosphate 5-phosphatase OCRL (Homo sapiens), Q01968 S568G (Q01968 whole entry S568G): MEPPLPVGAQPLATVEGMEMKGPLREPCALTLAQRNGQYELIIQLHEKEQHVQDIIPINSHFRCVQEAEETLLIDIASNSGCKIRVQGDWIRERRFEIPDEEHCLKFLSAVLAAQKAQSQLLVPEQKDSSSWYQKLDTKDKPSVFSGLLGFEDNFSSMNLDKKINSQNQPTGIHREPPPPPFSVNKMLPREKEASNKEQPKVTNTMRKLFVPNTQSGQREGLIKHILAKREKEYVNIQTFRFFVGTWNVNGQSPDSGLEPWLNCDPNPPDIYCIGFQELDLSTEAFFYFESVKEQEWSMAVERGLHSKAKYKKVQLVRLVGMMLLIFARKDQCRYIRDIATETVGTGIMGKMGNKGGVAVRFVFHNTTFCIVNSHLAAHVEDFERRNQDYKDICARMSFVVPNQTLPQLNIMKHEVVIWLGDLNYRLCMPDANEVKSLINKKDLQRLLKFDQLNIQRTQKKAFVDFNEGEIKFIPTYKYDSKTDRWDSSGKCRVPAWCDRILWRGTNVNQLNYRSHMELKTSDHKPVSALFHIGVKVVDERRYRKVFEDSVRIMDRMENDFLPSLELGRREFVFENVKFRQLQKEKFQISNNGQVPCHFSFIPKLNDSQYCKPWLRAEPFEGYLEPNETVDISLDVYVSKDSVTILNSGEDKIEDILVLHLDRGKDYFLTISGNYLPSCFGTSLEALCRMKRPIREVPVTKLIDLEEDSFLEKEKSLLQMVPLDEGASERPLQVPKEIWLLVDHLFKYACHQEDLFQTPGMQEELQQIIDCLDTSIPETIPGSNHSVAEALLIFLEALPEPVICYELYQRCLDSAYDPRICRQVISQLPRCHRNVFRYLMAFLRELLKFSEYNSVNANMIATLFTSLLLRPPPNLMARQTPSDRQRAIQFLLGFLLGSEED
Chain of rab6a_human RAB6A (P20340 whole entry, looked up): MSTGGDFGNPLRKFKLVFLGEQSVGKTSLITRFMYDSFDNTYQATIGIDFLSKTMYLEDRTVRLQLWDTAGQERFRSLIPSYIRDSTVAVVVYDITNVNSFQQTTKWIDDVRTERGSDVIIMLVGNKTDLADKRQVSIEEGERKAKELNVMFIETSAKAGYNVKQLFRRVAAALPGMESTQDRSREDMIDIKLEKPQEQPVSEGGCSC
Chain of Inositol polyphosphate 5-phosphatase OCRL (Homo sapiens), Q01968 S564P (Q01968 whole entry S564P): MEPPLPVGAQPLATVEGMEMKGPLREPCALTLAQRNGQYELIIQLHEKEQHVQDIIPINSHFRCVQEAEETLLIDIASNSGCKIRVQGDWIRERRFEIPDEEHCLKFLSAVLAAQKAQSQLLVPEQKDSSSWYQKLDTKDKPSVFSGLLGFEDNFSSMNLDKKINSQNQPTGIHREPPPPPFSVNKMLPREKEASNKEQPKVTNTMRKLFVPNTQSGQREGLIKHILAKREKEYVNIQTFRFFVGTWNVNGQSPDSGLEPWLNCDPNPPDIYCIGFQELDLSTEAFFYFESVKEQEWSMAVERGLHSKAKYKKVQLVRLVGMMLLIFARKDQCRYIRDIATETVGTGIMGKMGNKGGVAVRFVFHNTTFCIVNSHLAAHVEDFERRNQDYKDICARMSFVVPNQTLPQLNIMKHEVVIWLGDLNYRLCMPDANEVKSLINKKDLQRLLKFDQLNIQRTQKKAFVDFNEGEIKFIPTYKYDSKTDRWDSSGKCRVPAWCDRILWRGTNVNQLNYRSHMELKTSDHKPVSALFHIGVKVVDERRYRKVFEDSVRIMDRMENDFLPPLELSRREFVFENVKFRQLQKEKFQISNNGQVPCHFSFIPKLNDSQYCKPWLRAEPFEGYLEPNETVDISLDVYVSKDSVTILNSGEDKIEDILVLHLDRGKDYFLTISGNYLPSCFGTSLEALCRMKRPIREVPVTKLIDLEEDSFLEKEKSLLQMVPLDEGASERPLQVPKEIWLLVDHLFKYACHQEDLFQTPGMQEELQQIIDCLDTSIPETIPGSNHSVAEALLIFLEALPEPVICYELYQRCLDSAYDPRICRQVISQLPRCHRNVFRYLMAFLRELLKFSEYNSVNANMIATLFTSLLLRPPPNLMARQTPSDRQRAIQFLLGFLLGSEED
Chain of Inositol polyphosphate 5-phosphatase OCRL (Homo sapiens), Q01968 G664D (Q01968 whole entry G664D): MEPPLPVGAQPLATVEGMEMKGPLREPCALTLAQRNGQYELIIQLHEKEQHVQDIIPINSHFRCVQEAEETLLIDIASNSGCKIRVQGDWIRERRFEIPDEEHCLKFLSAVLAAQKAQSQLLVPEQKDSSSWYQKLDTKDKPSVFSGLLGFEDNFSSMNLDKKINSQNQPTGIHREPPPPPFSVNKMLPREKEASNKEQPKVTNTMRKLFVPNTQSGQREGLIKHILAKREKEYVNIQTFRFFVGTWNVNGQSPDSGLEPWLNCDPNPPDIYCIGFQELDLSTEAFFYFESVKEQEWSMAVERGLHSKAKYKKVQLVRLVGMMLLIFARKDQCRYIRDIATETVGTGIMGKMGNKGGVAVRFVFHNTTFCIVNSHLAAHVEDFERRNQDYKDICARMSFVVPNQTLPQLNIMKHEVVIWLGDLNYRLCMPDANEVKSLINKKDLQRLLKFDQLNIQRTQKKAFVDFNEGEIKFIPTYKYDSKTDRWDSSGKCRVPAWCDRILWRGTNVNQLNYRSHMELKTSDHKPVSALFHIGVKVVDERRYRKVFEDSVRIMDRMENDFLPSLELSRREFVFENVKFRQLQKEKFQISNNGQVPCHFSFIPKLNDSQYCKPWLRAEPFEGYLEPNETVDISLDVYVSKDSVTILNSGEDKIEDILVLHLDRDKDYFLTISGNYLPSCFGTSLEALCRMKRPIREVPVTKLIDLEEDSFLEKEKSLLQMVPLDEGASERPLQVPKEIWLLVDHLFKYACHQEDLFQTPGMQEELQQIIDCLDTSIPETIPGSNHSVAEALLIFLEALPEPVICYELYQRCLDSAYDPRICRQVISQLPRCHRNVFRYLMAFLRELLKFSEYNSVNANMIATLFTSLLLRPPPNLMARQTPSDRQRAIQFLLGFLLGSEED
Chain of rab1a_human RAB1A (P62820 whole entry): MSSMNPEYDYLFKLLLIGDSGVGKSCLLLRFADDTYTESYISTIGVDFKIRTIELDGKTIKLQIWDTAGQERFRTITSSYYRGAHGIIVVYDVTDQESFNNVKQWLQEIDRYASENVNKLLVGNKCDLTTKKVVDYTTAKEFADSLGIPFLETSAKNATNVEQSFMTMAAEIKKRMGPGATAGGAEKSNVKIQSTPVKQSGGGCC

effect of a mutation on the interaction (rab1a_human RAB1A [1]): disrupting interaction
effect of a mutation on the interaction (rab6a_human RAB6A [2]): disrupting interaction
effect of a mutation on the interaction (rab5a_human RAB5A [3]): decreasing interaction
Substance: Inositol polyphosphate 5-phosphatase OCRL (Homo sapiens), Q01968 S564P

effect of a mutation on the interaction (rab5a_human RAB5A [4]): increasing interaction
effect of a mutation on the interaction (rab6a_human RAB6A [5]): decreasing interaction
effect of a mutation on the interaction (rab1a_human RAB1A [6]): increasing interaction
Substance: Inositol polyphosphate 5-phosphatase OCRL (Homo sapiens), Q01968 S568G

effect of a mutation on the interaction (rab6a_human RAB6A [7]): decreasing interaction
effect of a mutation on the interaction (clh1_human CLTC [8]): decreasing interaction
effect of a mutation on the interaction (rab5a_human RAB5A [9]): decreasing interaction
effect of a mutation on the interaction (rab1a_human RAB1A [10]): disrupting interaction
Substance: Inositol polyphosphate 5-phosphatase OCRL (Homo sapiens), Q01968 D555E

effect of a mutation on the interaction (rab6a_human RAB6A [11]): disrupting interaction
effect of a mutation on the interaction (rab5a_human RAB5A [12]): decreasing interaction
effect of a mutation on the interaction (rab1a_human RAB1A [13]): disrupting interaction
Substance: Inositol polyphosphate 5-phosphatase OCRL (Homo sapiens), Q01968 G664D

effect of a mutation on the interaction (rab6a_human RAB6A [14]): increasing interaction
effect of a mutation on the interaction (clh1_human CLTC [15]): increasing interaction
Substance: Inositol polyphosphate 5-phosphatase OCRL (Homo sapiens), Q01968 P526H

effect of a mutation on the interaction (rab6a_human RAB6A [16]): increasing interaction
effect of a mutation on the interaction (clh1_human CLTC [17]): increasing interaction
Substance: Inositol polyphosphate 5-phosphatase OCRL (Homo sapiens), Q01968 N606K
